In the Human Domainome abundance scans (Beltran et al. 2025) one finds abundance fitness data, which are given here for 40 variants.

B1: RNA-binding E3 ubiquitin-protein ligase MEX3C, residues 325 to 391; numbered along this chain, Q5U5Q3 (parent)
chain: GQTTVQVRVPYRVVGLVVGPKGATIKRIQQQTHTYIVTPSRDKEPVFEVTGMPENVDRAREEIEMHI

± gives the uncertainty stated by the source.

The variants in the series derive from B1. Description: abundance fitness (aPCA) (normalised: wild type 0, dead -1); higher = more abundant; growth selection in yeast, the domain comes from the species named. The note with it: Homo sapiens.
In the case of GQTTVQVRVPYRVVGLVVGPKGATIKRIQQQTHTYIVTPSRDKEPVFEVTGHPENVDRAREEIEMHI, the abundance fitness is -0.515 ± 0.33.
The value for GQTTVQVRVPYRVVGLVVGPKGATIKRIQQQTHTYIVTPSRDKEPVFEVTGYPENVDRAREEIEMHI was -0.19 ± 0.13; that for GQTTVQVRVPYRVVGLVVGPKGATIKRIQQQTHTYIVTPSRDKEPVFEVTGIPENVDRAREEIEMHI was -0.183 ± 0.17.
GQTTVQVRVPYRVVGLVVGPKGATIKRIQQQTHTYIVTPSRDKEPVFEVTGSPENVDRAREEIEMHI: the abundance fitness worked out at 0.006 ± 0.073.
GQTTVQVRVPYRVVGLVVGPKGATIKRIQQQTHTYIVTPSRDKEPVFEVTGVPENVDRAREEIEMHI: the abundance fitness is -0.482 ± 0.082.
On to GQTTVQVRVPYRVVGLVVGPKGATIKRIQQQTHTYIVTPSRDKEPVFEVTGDPENVDRAREEIEMHI, for which the abundance fitness was -0.13 ± 0.12.
Next, GQTTVQVRVPYRVVGLVVGPKGATIKRIQQQTHTYIVTPSRDKEPVFEVTGWPENVDRAREEIEMHI: -0.369 ± 0.068.
The value for GQTTVQVRVPYRVVGLVVGPKGATIKRIQQQTHTYIVTPSRDKEPVFEVTGGPENVDRAREEIEMHI was -0.596 ± 0.071; that for GQTTVQVRVPYRVVGLVVGPKGATIKRIQQQTHTYIVTPSRDKEPVFEVTGKPENVDRAREEIEMHI was -0.075 ± 0.083.
Take GQTTVQVRVPYRVVGLVVGPKGATIKRIQQQTHTYIVTPSRDKEPVFEVTGQPENVDRAREEIEMHI: the abundance fitness was -0.021 ± 0.095.
Next, GQTTVQVRVPYRVVGLVVGPKGATIKRIQQQTHTYIVTPSRDKEPVFEVTGCPENVDRAREEIEMHI: -0.194 ± 0.1; GQTTVQVRVPYRVVGLVVGPKGATIKRIQQQTHTYIVTPSRDKEPVFEVTGTPENVDRAREEIEMHI: 0.185 ± 0.071.
On to GQTTVQVRVPYRVVGLVVGPKGATIKRIQQQTHTYIVTPSRDKEPVFEVTGAPENVDRAREEIEMHI, for which the abundance fitness is -0.141 ± 0.079.
On to GQTTVQVRVPYRVVGLVVGPKGATIKRIQQQTHTYIVTPSRDKEPVFEVTGRPENVDRAREEIEMHI, for which the abundance fitness was -0.167 ± 0.044.
The value for GQTTVQVRVPYRVVGLVVGPKGATIKRIQQQTHTYIVTPSRDKEPVFEVTGLPENVDRAREEIEMHI was -0.04 ± 0.055.
For the variant GQTTVQVRVPYRVVGLVVGPKGATIKRIQQQTHTYIVTPSRDKEPVFEVTGFPENVDRAREEIEMHI, the abundance fitness is -0.206 ± 0.096.
For GQTTVQVRVPYRVVGLVVGPKGATIKRIQQQTHTYIVTPSRDKEPVFEVTGNPENVDRAREEIEMHI, the abundance fitness is -0.99 ± 0.49.
For the variant GQTTVQVRVPYRVVGLVVGPKGATIKRIQQQTHTYIVTPSRDKEPVFEVTGEPENVDRAREEIEMHI, the abundance fitness is -0.2 ± 0.095.
On to GQTTVQVRVPYRVVGLVVGPKGATIKRIQQQTHTYIVTPSRDKEPVFEQTGMPENVDRAREEIEMHI, for which the abundance fitness is -0.901 ± 0.35.
Consider GQTTVQVRVPYRVVGLVVGPKGATIKRIQQQTHTYIVTPSRDKEPVFERTGMPENVDRAREEIEMHI, for which the abundance fitness is -0.788 ± 0.087.
On to GQTTVQVRVPYRVVGLVVGPKGATIKRIQQQTHTYIVTPSRDKEPVFETTGMPENVDRAREEIEMHI, for which the abundance fitness was -0.626 ± 0.12.
Take GQTTVQVRVPYRVVGLVVGPKGATIKRIQQQTHTYIVTPSRDKEPVFEWTGMPENVDRAREEIEMHI: the abundance fitness was -0.99 ± 0.17.
Next, GQTTVQVRVPYRVVGLVVGPKGATIKRIQQQTHTYIVTPSRDKEPVFEYTGMPENVDRAREEIEMHI: -0.804 ± 0.42; GQTTVQVRVPYRVVGLVVGPKGATIKRIQQQTHTYIVTPSRDKEPVFESTGMPENVDRAREEIEMHI: -0.843 ± 0.13; GQTTVQVRVPYRVVGLVVGPKGATIKRIQQQTHTYIVTPSRDKEPVFEVTSMPENVDRAREEIEMHI: -0.918 ± 0.23.
In the case of GQTTVQVRVPYRVVGLVVGPKGATIKRIQQQTHTYIVTPSRDKEPVFEVTPMPENVDRAREEIEMHI, the abundance fitness is -0.78 ± 0.23.
For GQTTVQVRVPYRVVGLVVGPKGATIKRIQQQTHTYIVTPSRDKEPVFEVTRMPENVDRAREEIEMHI, the abundance fitness is -0.726 ± 0.1.
On to GQTTVQVRVPYRVVGLVVGPKGATIKRIQQQTHTYIVTPSRDKEPVFEVTDMPENVDRAREEIEMHI, for which the abundance fitness is -0.656 ± 0.11.
Next, GQTTVQVRVPYRVVGLVVGPKGATIKRIQQQTHTYIVTPSRDKEPVFEVTQMPENVDRAREEIEMHI: -0.776 ± 0.36; GQTTVQVRVPYRVVGLVVGPKGATIKRIQQQTHTYIVTPSRDKEPVFEVTKMPENVDRAREEIEMHI: -0.448 ± 0.2; GQTTVQVRVPYRVVGLVVGPKGATIKRIQQQTHTYIVTPSRDKEPVFEVTWMPENVDRAREEIEMHI: -0.951 ± 0.26.
As for GQTTVQVRVPYRVVGLVVGPKGATIKRIQQQTHTYIVTPSRDKEPVFEVTCMPENVDRAREEIEMHI, the abundance fitness was -1.05 ± 0.25.
With GQTTVQVRVPYRVVGLVVGPKGATIKRIQQQTHTYIVTPSRDKEPVFEVTYMPENVDRAREEIEMHI, the abundance fitness is -0.918 ± 0.25.
The value for GQTTVQVRVPYRVVGLVVGPKGATIKRIQQQTHTYIVTPSRDKEPVFEVTHMPENVDRAREEIEMHI was -0.789 ± 0.32; that for GQTTVQVRVPYRVVGLVVGPKGATIKRIQQQTHTYIVTPSRDKEPVFEVTFMPENVDRAREEIEMHI was -0.701 ± 0.38.
Turning to GQTTVQVRVPYRVVGLVVGPKGATIKRIQQQTHTYIVTPSRDKEPVFEVTTMPENVDRAREEIEMHI, the abundance fitness was -1.05 ± 0.26.
Consider GQTTVQVRVPYRVVGLVVGPKGATIKRIQQQTHTYIVTPSRDKEPVFEVTLMPENVDRAREEIEMHI, for which the abundance fitness was -0.794 ± 0.16.
The value for GQTTVQVRVPYRVVGLVVGPKGATIKRIQQQTHTYIVTPSRDKEPVFEVTEMPENVDRAREEIEMHI was -0.599 ± 0.13; that for GQTTVQVRVPYRVVGLVVGPKGATIKRIQQQTHTYIVTPSRDKEPVFEVCGMPENVDRAREEIEMHI was -0.313 ± 0.12; that for GQTTVQVRVPYRVVGLVVGPKGATIKRIQQQTHTYIVTPSRDKEPVFEVLGMPENVDRAREEIEMHI was -0.547 ± 0.13.
